assay: yeast display, Sf9 membrane polyspecificity reagent, FACS + sequencing; frameworks hold sequencing errors
In short: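 Nanobodies came from a synthetic yeast display library in Saccharomyces cerevisiae BJ5465, induced with galactose for 36–48 hours and stained for 1 hour at 4 °C with 10% biotinylated, detergent-solubilized Sf9 membrane reagent. Cells were enriched on streptavidin microbeads and then FACS-sorted, with low and high (top ~1%) gates set on anti-HA fluorescence for expression and streptavidin fluorescence for reagent binding. Each polyreactivity label reflects the gate a clone came from. Genes were amplified by colony PCR, sequenced by MiSeq 2 × 250 and filtered by CDR length.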

| Sequence | polyreactivity (PSR sort gate) |
| --- | --- |
| QVQLVESGGGLVQAGGSLRLSCAASGITFGANAMGWYRQAPGKERELVADITWSGGDTYYADSVKGRFTISRDTAKNTVYLQLHSLKPEDTAVYYCAVDTYIYTNRRYTKFDYWGQGTQVTVSS | low polyreactivity |
| QVQLVESGGGLVQAGGSLRLSCAASGITFGDYAMGWYRQAPGKEMEMVAGINWSGDGTYYADSVKGRFTISRDNAKNTVYLQMNSLKPEDTAVYYCNARGIPLYSYRDYRFVVLNFDYWGQGTQVTVSS | low polyreactivity |
| QVQLVESGGGLVQAGGSLRLSCAASGITFGDYAMGWYRQAPGKERELVAAISKRGGSTYYADSVKGRFTISRDNAKNTVYLQMNSLKPEDTAVYYCAADYYINAYYYWGQGTQVTVSS | high polyreactivity |
| QVQLVESGGGLVQAGGSLRLSCAASGITFGDYAMGWYRQAPGKERELVAAISKRGGSTYYAESVKGRFTISRDNAKNTVYLQMNSRNPEDTAVYYCAADYYSKAYYYWGQGTQVTVSS | high polyreactivity |
| QVQLVESGGGLVQAGGSLRLSCAASGITFGGNAMGWYRQAPGKERELVAAISGRGGRTYYADSVKGRFTISRDTAKNTVYLQMNSLKPEDTAVYYCAGGGRVRYDYWGQGTQVTVSS | low polyreactivity |
| QVQLVESGGGLVQAGGSLRLSCAASGITFGGYALGWYRQAPGKEREFVAGISSSGRSTYYADSVKGRFTISRDNAKNTVYLQMYSLKPEDTAVYYCAVYRVRKVYVLRGPFYYWGQGTQVTVSS | high polyreactivity |
| QVQLVESGGGLVQAGGSLRLSCAASGITFGHYTMGWYRQAPGKERELVAAISWSGGSTYYADSVKGRFTISRDNAKNTVYLQMNSLKPEDTAVYYCNRVKPVIASYDSDYWGQGTQVTVSS | low polyreactivity |
| QVQLVESGGGLVQAGGSLRLSCAASGITFGINAMGWYRQAPGKERELVAAITSGGSTYYADSVKGRFTISRDNAKNTVYLQMNSLKPEDTAVYDCAADYQYFVYCEYDYWGQGTQVTVSS | low polyreactivity |
| QVQLVESGGGLVQAGGSLRLSCAASGITFGIYVMGWYRQAPGKERELVATISRSDDNTYYADSVKGRFTISRDNAKNTVYLQMNSLKPEDTAVYYCAADGVISAWYSSRDDYWGQGTQVTVSS | low polyreactivity |
| QVQLVESGGGLVQAGGSLRLSCAASGITFGKNALGWYRQAPGKERELVATIRRSGGSTYADSVKGRFTISRDNAKNTVYLQMNSLKPEDTAVYYCNARSWNTYNYWGQGTQVTVSS | high polyreactivity |
| QVQLVESGGGLVQAGGSLRLSCAASGITFGLYAMGWYRQAPGKEREFVAAISRRGGSTSYADSVKGRFTISRDNAKNTVYLQMNSLKPEDTAVYYCDTSYRRTVGGYTYYWGQGTQVTVSS | high polyreactivity |
| QVQLVESGGGLVQAGGSLRLSCAASGITFGRNAMGWYRQAPGKERELVAAISRGGSTNYADSVKGRFTISRDNAKNTVYLQMNSLKPEDTAVYYCNARSWPHGSWIPIHRRYGYWGQGTQVTVSS | high polyreactivity |
| QVQLVESGGGLVQAGGSLRLSCAASGITFGRNTMGWYRPAPGKERELVAAIDSGGNTYADSVKGRFTISRDNAKNTVYLQMNSLKPEDTAVYYCAVDGGEFSSYGYWGQGTQVTVSS | low polyreactivity |
| QVQLVESGGGLVQAGGSLRLSCAASGITFGRYAMGWYSQAPGKARELVASITVNGGRTYYADSVKGRFTISRDNAKNTVNLQMNSLKPEDTAVSYCAAERRNSYVLLFKYNYWGQGTQVTVSS | low polyreactivity |
| QVQLVESGGGLVQAGGSLRLSCAASGITFGSNAMGWYRQAPGKERELVAAISRSGGRTYYADSVKGRFTISRDNAKNTVSLQMNSLKPEDTAVYDCATDSYTTGEYWGQGTQVTVSS | high polyreactivity |
| QVQLVESGGGLVQAGGSLRLSCAASGITFGSYAMGWYRQAPGKEREFVAAISLSGGNTYYADSVKGRFTISRDNAKNTVYLQMNSRKPEDTAVYYCAADYDYSGYGYWGQGTQVTVSS | high polyreactivity |

| Sequence | polyreactivity (PSR sort gate) |
| --- | --- |
| QVQLVESGGGLVQAGGSLRLSCAASGITFGTNAMGWYRQAPGKERELVAAITSGVSTYYADSVKGRFTISRDNAKNTVYLQMNSLIPEDTAVYYCAKDVAVYADLYQGDPYGYWGQGTLVTVSS | low polyreactivity |
| QVQLVESGGGLVQAGGSLRLSCAASGITFGVNTMGWYRQAPGKERELVAAITWRGGSTYYADSVKGRFTISRDNAKNTVYLQMNSLKPEDTAVYYCAAPYDGPVLTVGYDYWGQGTQVTVSS | low polyreactivity |
| QVQLVESGGGLVQAGGSLRLSCAASGITFGVNTMGWYRQAPGKERELVAAITWRGGSTYYADSVKGRFTISRDNAKNTVYLQMNSLKPEDTAVYYCAAVDFTREISGVTYGFDYCGQGTQVTVSS | low polyreactivity |
| QVQLVESGGGLVQAGGSLRLSCAASGITFGYNTMGWYRQAPGKERELVAAISGSGGRTYYADSVKGRFTISRDNAKNTVFLQMNSLKPEDTAVYYCAARWPIWSSLYDYWGQGTQVTVSS | high polyreactivity |
| QVQLVESGGGLVQAGGSLRLSCAASGITFGYYAMGRYRQAPGKERELVAAISNSGRTYYADSVKGRFTISRDNAKNTVYLQMNSLKPEDTAVYYCAVRISGNWYDYWGQGTQVTVSS | low polyreactivity |
| QVQLVESGGGLVQAGGSLRLSCAASGITFGYYAMGWSRQAPGKERELVAAISSGGRTNYADSVKGRFTISRDNAKNTVYLQMISLKPEDTAVYYCAASTHHPGYPPDVLYDEYEYWGQGTQVTVSS | low polyreactivity |
| QVQLVESGGGLVQAGGSLRLSCAASGITFGYYAMGWYRQAPGKERELVAAISNSGRTYYADSVKGRFTISRDNAKNTVYLQMNILKPEDTAVYYCAAEDAYYDFYYWGQGTKVTVSS | low polyreactivity |
| QVQLVESGGGLVQAGGSLRLSCAASGITFHRNAMGWYRQAPGKERELVAAITRGGSTYYADSVKGRFTISRDNAKNTVYLQMNSLKPEDTAVYYCNAYYWFGPGRDYWGQGTQVTVSS | high polyreactivity |
| QVQLVESGGGLVQAGGSLRLSCAASGITFHSYAMGWYRQAPGKERELVAGISSGGSTNYADSVKGRFTISRDNAKNTVYLQMNSLKPEDTAVYYCNADTPFYEYDYWGQGTQVTVSS | low polyreactivity |
| QVQLVESGGGLVQAGGSLRLSCAASGITFIGYVMGWYRQAPGKERELVAAISRSGASTYYADSVKGRFTISRDNAKNTVYLQMNSLKPEDTAVYYSATVRYHPAYYYWGQGTQVTVSS | high polyreactivity |
| QVQLVESGGGLVQAGGSLRLSCAASGITFIRNGMGWYRQAPGKERELVAAISDTGARTYYADSVKGRFTISRDNAKNTVYLQMNSLKPEDTAVYYCAAEVRTRYLYSFRWYDYWGQGTQVTVSS | low polyreactivity |
| QVQLVESGGGLVQAGGSLRLSCAASGITFKPNTMGWYRQAPGKERELVAAIDWSGSSTYYADSVKGRFTISRDNAKNTVYLHMNSLKPEDTAVYYCAADEYEYFWSYDYWGQGTQVTVSS | low polyreactivity |
| QVQLVESGGGLVQAGGSLRLSCAASGITFKPNTMGWYRQAPGKERELVAAIDWSGSSTYYADSVKGRFTISRDNAKNTVYLQMISLKPEDTAVYYCAADDYEYFWSYDYWGQGTQVTVSS | low polyreactivity |
| QVQLVESGGGLVQAGGSLRLSCAASGITFKRYAMGWYRQAPGKERELVAAITWRGARTYYADSVKGRFTISRDNAKNTVYLQMNSLKPEDTAVYYCAADGYSGSGPYDYWGQGTQVTVSS | high polyreactivity |
| QVQLVESGGGLVQAGGSLRLSCAASGITFKRYAMGWYRQAPGKEREMVAAITGIGGSTYYADSVKGRFTISRDNAMNTVYLQMNSLKPEDTAVYYCAARNNKKYDYWGQGTQVTVSS | high polyreactivity |
| QVQLVESGGGLVQAGGSLRLSCAASGITFKTNARGWYRQAPGKERELVAAINKRGGSTYYADSVKGRFTISRDNAKNTVYLQMNSLKPEDTAVYYCARRYGEKFGGQGTQVTVSS | high polyreactivity |

— the nanobody polyreactivity screen of Harvey et al. (2022)
